Substitutions are numbered along the chain they refer to. Names and notes keep the numbering of the source.
Tests used:
Experiment in all cases: SEC
[1] = molecular target: (CENP-A/H4)2 heterotetramer (human, UniProt P49450 1-140; P62805 1-103)
(CENP-A^S68Q/H4)2 = (CENP-A^S68Q/H4)2 (human, UniProt P49450 1-140; P62805 1-103, S68Q)
[2] = molecular target: CENP-A^H115A/L128A/H4 heterodimer (human, UniProt P49450 1-140; P62805 1-103, H115A | L128A)
CENP-A^H115A/L128A/H4 heterodimer, sequence (P49450 whole entry H115A/L128A, one chain of several): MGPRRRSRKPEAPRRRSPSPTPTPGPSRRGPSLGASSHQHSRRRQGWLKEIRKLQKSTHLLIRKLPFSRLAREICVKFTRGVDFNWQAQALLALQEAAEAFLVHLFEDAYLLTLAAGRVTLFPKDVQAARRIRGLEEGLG

(CENP-A/H4)2 heterotetramer, sequence (P49450 whole entry, one chain of several): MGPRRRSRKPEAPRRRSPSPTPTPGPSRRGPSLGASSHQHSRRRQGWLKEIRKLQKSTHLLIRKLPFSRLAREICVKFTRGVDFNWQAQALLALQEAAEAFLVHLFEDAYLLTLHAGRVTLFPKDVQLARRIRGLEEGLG
(CENP-A^S68Q/H4)2, sequence (P49450 whole entry S68Q, one chain of several): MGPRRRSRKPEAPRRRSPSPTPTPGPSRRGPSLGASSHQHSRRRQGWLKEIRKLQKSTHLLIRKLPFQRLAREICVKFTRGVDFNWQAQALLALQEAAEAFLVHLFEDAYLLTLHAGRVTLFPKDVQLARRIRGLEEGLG

B1: MBP-HJURP^1–62 (domain or fragment)
chain: MLGTLRAMEGEDVEDDQLLQKLRASRRRFQRRMQRLIEKYNQPFEDTPVVQMATLTYETPQG
B1: binds [1].

B2: MBP-HJURP^1–80 (domain or fragment)
chain: MLGTLRAMEGEDVEDDQLLQKLRASRRRFQRRMQRLIEKYNQPFEDTPVVQMATLTYETPQGLRIWGGRLIKERNEGEIQ
B2: binds [1]; binds ((CENP-A^S68Q/H4)2); binds [2].

B3: MBP-HJURP^1–80/W66A (domain or fragment)
chain: B2 chain with W66A
B3: binds [1].
